# Measured values taken from patent US20210388087A1.
# Substitutions are numbered along the chain they refer to. Names may count otherwise.
# B1: H183/L072 VL Y32M (antibody, name in Kabat numbering, V domains shown)
# VH: QVQLVESGGGLVQPGRSLRLSCAASGFTFSNAWMHWVRQAPGKGLEWVAQIKDKGNAYAAYYAPSVKGRFTISRDDSKNSIYLQMNSLKTEDTAVYYCHYVHYASASTVLPAFGVDAWGQGTTVTVSS
# VL: DIVMTQSPLSLPVTPGEPASISCQASQELVHMNRNTMLHWYQQKPGQAPRLLIYKVSNRFPGVPDRFSGSGSGTDFTLKISRVEAEDVGVYYCAQGTSVPFTFGQGTKLEIK
# B2: H183/L072 VL Y32P (antibody, name in Kabat numbering, V domains shown)
# VH: B1 VH
# VL: B1 VL with M37P
# B3: H183/L072 VL V27cG (antibody, name in Kabat numbering, V domains shown)
# VH: B1 VH
# VL: B1 VL with V30G, M37Y
# B4: H183/L072 VL L27bG (antibody, name in Kabat numbering, V domains shown)
# VH: B1 VH
# VL: B1 VL with L29G, M37Y
# B5: H183/L072 VL A89I (antibody, name in Kabat numbering, V domains shown)
# VH: B1 VH
# VL: B1 VL with M37Y, A94I
# B6: H183/L072 VL N28F (antibody, name in Kabat numbering, V domains shown)
# VH: B1 VH
# VL: B1 VL with N33F, M37Y
# B7: H183/L072 VL F96I (antibody, name in Kabat numbering, V domains shown)
# VH: B1 VH
# VL: B1 VL with M37Y, F101I
# B8: H183/L072 VL N53I (antibody, name in Kabat numbering, V domains shown)
# VH: B1 VH
# VL: B1 VL with M37Y, N58I
# B9: H183/L072 VL H34P (antibody, name in Kabat numbering, V domains shown)
# VH: B1 VH
# VL: B1 VL with M37Y, H39P
# B10: H183/L072 VL N28W (antibody, name in Kabat numbering, V domains shown)
# VH: B1 VH
# VL: B1 VL with N33W, M37Y
# B11: H183/L072 VL H27dY (antibody, name in Kabat numbering, V domains shown)
# VH: B1 VH
# VL: B1 VL with H31Y, M37Y
# B12: H183/L072 VL Y32V (antibody, name in Kabat numbering, V domains shown)
# VH: B1 VH
# VL: B1 VL with M37V
# B13: H183/L072 VL G91A (antibody, name in Kabat numbering, V domains shown)
# VH: B1 VH
# VL: B1 VL with M37Y, G96A
# B14: H183/L072 VL T31P (antibody, name in Kabat numbering, V domains shown)
# VH: B1 VH
# VL: B1 VL with T36P, M37Y
# B15: H183/L072 VL N28R (antibody, name in Kabat numbering, V domains shown)
# VH: B1 VH
# VL: B1 VL with N33R, M37Y
# B16: H183/L072 VL H27dV (antibody, name in Kabat numbering, V domains shown)
# VH: B1 VH
# VL: B1 VL with H31V, M37Y
# B17: H183/L072 VL P95A (antibody, name in Kabat numbering, V domains shown)
# VH: B1 VH
# VL: B1 VL with M37Y, P100A
# B18: H183/L072 VL K50A (antibody, name in Kabat numbering, V domains shown)
# VH: B1 VH
# VL: B1 VL with M37Y, K55A
# B19: H183/L072 VL H27dR (antibody, name in Kabat numbering, V domains shown)
# VH: B1 VH
# VL: B1 VL with H31R, M37Y
# B20: H183/L072 VL K50I (antibody, name in Kabat numbering, V domains shown)
# VH: B1 VH
# VL: B1 VL with M37Y, K55I
# B21: H183/L072 VL T31Y (antibody, name in Kabat numbering, V domains shown)
# VH: B1 VH
# VL: B1 VL with T36Y, M37Y
# B22: H183/L072 VL H27dW (antibody, name in Kabat numbering, V domains shown)
# VH: B1 VH
# VL: B1 VL with H31W, M37Y
# B23: H183/L072 VL T31F (antibody, name in Kabat numbering, V domains shown)
# VH: B1 VH
# VL: B1 VL with T36F, M37Y
# B24: H183/L072 VL L27bW (antibody, name in Kabat numbering, V domains shown)
# VH: B1 VH
# VL: B1 VL with L29W, M37Y
# B25: H183/L072 VL Q24P (antibody, name in Kabat numbering, V domains shown)
# VH: B1 VH
# VL: B1 VL with Q24P, M37Y
# B26: H183/L072 VL R29P (antibody, name in Kabat numbering, V domains shown)
# VH: B1 VH
# VL: B1 VL with R34P, M37Y
# B27: H183/L072 VL T31W (antibody, name in Kabat numbering, V domains shown)
# VH: B1 VH
# VL: B1 VL with T36W, M37Y
# B28: H183/L072 VL H34M (antibody, name in Kabat numbering, V domains shown)
# VH: B1 VH
# VL: B1 VL with M37Y, H39M
# B29: H183/L072 VL F96A (antibody, name in Kabat numbering, V domains shown)
# VH: B1 VH
# VL: B1 VL with M37Y, F101A
# B30: H183/L072 VL V27cP (antibody, name in Kabat numbering, V domains shown)
# VH: B1 VH
# VL: B1 VL with V30P, M37Y
# B31: H183/L072 VL Q90A (antibody, name in Kabat numbering, V domains shown)
# VH: B1 VH
# VL: B1 VL with M37Y, Q95A
# B32: H183/L072 VL Y32W (antibody, name in Kabat numbering, V domains shown)
# VH: B1 VH
# VL: B1 VL with M37W
# B33: H183/L072 VL H27dP (antibody, name in Kabat numbering, V domains shown)
# VH: B1 VH
# VL: B1 VL with H31P, M37Y
# B34: H183/L072 VL L33W (antibody, name in Kabat numbering, V domains shown)
# VH: B1 VH
# VL: B1 VL with M37Y, L38W
# B35: H183/L072 VL H34V (antibody, name in Kabat numbering, V domains shown)
# VH: B1 VH
# VL: B1 VL with M37Y, H39V
# B36: H183/L072 VL L33Y (antibody, name in Kabat numbering, V domains shown)
# VH: B1 VH
# VL: B1 VL with M37Y, L38Y
# B37: H183/L072 VL Y32F (antibody, name in Kabat numbering, V domains shown)
# VH: B1 VH
# VL: B1 VL with M37F
# B38: H183/L072 VL Q27P (antibody, name in Kabat numbering, V domains shown)
# VH: B1 VH
# VL: B1 VL with Q27P, M37Y
# B39: H183/L072 VL L33P (antibody, name in Kabat numbering, V domains shown)
# VH: B1 VH
# VL: B1 VL with M37Y, L38P
# B40: H183/L072 VL N28P (antibody, name in Kabat numbering, V domains shown)
# VH: B1 VH
# VL: B1 VL with N33P, M37Y
# B41: H183/L072 VL G91I (antibody, name in Kabat numbering, V domains shown)
# VH: B1 VH
# VL: B1 VL with M37Y, G96I
# B42: H183/L072 VL N30P (antibody, name in Kabat numbering, V domains shown)
# VH: B1 VH
# VL: B1 VL with N35P, M37Y
# B43: H183/L072 VL T92I (antibody, name in Kabat numbering, V domains shown)
# VH: B1 VH
# VL: B1 VL with M37Y, T97I
# B44: H183/L072 VL Q90I (antibody, name in Kabat numbering, V domains shown)
# VH: B1 VH
# VL: B1 VL with M37Y, Q95I
# B45: H183/L072 VL N28V (antibody, name in Kabat numbering, V domains shown)
# VH: B1 VH
# VL: B1 VL with N33V, M37Y
# B46: H183/L072 VL N28Y (antibody, name in Kabat numbering, V domains shown)
# VH: B1 VH
# VL: B1 VL with N33Y, M37Y
# B47: H183/L072 VL P95I (antibody, name in Kabat numbering, V domains shown)
# VH: B1 VH
# VL: B1 VL with M37Y, P100I
# Molecular target: Human CD3eg linker (human)
# Assay: SPR; fold vs parent H183/L072
# Sequence of Human CD3eg linker (human) (chain, as listed by the source limits assumed): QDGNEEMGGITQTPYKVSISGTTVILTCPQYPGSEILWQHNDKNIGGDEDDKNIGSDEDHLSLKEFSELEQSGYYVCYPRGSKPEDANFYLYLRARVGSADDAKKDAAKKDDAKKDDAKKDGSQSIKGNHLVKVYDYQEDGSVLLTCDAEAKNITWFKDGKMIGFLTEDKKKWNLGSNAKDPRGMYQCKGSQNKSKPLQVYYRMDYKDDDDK
row,fold change of affinity [fold],Binder
1,0,B1
2,0,B2
3,0,B3
4,0,B4
5,0,B5
6,0,B6
7,0,B7
8,0,B8
9,0,B9
10,0,B10
11,0,B11
12,0,B12
13,0,B13
14,0,B14
15,0,B15
16,0,B16
17,0,B17
18,0,B18
19,0,B19
20,0,B20
21,0,B21
22,0,B22
23,0,B23
24,0,B24

row,fold change of affinity [fold],Binder
1,0,B25
2,0,B26
3,0,B27
4,0,B28
5,0,B29
6,0,B30
7,0,B31
8,0,B32
9,0,B33
10,0,B34
11,0,B35
12,0,B36
13,0,B37
14,0,B38
15,0,B39
16,0,B40
17,0,B41
18,0,B42
19,0,B43
20,0,B44
21,0,B45
22,0,B46
23,0,B47
